Assays:
[1] = biological target: T1, N-terminal PAR-2/Fc (full length and truncated) (Homo sapiens, UniProt P55085); experiment: Western blot, binding to uncleaved versus clipped N-terminal PAR-2/Fc; conditions: upstream binder binds only full-length PAR-2/Fc
T1 construct: made in house; host or cells: CHO cells (10% FCS for uncleaved; serum-free for clipped)
Text: N-terminal PAR-2/Fc polypeptide (SEQ ID NO:6) is expressed in suitable mammalian cells such as CHO cells. Expression supernatant from CHO expression cells cultured in serum-free media contain a CHO cell trypsin-like serine protease that cleaves PAR-2/Fc at the activation Arg-Ser bond, generating the “clipped” version of the PAR-2/Fc polypeptide. CHO expression cells cultured in 10% fetal calf serum (which contains normal levels of plasma proteinase inhibitors at concentrations far in excess of the concentration of the CHO cell trypsin-like serine protease) express uncleaved N-terminal PAR-2/Fc in culture supernatants. Both clipped and uncleaved proteins are purified using methods that are suitable for isolation and purification of proteins comprising an Fc regions (for example, using a MabSelect™ resin systems, from GE Healthcare, Piscataway, N.J.)). The resultant purified Fc-constructs are analyzed by amino terminal sequence analysis (Edman degradation), size exclusion chromatrography, absorbance spectral scan, and mass spectroscopy, as needed.
To analyze binding to uncleaved versus cleaved PAR-2, various amounts of purified uncleaved and clipped N-terminal PAR2-Fc are subjected to SDS-PAGE using 8-16% polyacrylamide gradient gels (Novex gels, Invitrogen Life Technologies) in a Tris-Glycine buffer system. Gel lanes containing See Blue standards (Novex, Invitrogen Life Technologies) for molecular weight identification are also included. Following electrophoresis, proteins are transferred from gels onto nitrocellulose membranes using a Novex XCell II Blot Module (Invitrogen Life Technologies). Membranes are blocked with 1:1, Odyssey blocking buffer, OBB, (LI-COR Biosciences):TBS (Tris Buffer Saline) overnight at 4 C with shaking. Antibodies to be analyzed are diluted in 1:1 OBB:TBS at a desired final concentration for 1 hr at room temperature. Membranes are washed extensively with 0.1% Tween 20 in TBS (3-4 changes of 100 ml over ˜1 hr). Membranes are then exposed to the appropriate secondary antibody-Alexa680 (Molecular Probes, Invitrogen Life Technologies) conjugate (goat anti-rabbit IgG, or goat anti-mouse IgG) diluted 1:5000 in 1:1 (OBB:TBS) for 1 hr at room temperature. Membranes are washed as described above, and if desired, analyzed using a LI-COR Odyssey Infrared Imaging System (LI-COR Biosciences).
Several PAR-2 antibodies were tested in different assay formats; Table 2 summarizes the results. IC50 values were determined in a FLIPR assay for Ca2+ mobilization described previously; binding to the upstream region of the cleavage site versus the downstream region of the cleavage site was determined using the Western blot assay described previously.

[2] = biological target: T2, cell surface expressed human PAR-2 (Homo sapiens, UniProt P55085); experiment: KinExA binding to cell surface expressed PAR-2; conditions: initial analysis, 95% confidence interval of 1.36 to 5.47 nM, N=2 experiments
T2 construct: expressed in transfected cells; host or cells: CHO cells
T2 sequence (P55085 26-397): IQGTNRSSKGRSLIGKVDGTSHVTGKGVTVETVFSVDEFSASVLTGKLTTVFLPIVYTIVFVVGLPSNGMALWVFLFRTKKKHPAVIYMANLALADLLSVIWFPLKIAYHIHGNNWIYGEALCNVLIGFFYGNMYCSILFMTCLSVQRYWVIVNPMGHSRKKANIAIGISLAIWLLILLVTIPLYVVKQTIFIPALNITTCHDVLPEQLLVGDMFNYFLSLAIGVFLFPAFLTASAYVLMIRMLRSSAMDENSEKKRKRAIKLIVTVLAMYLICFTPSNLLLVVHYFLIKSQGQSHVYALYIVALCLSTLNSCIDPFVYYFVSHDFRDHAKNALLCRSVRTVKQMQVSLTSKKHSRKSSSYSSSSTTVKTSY
Text: This example describes the analysis of the binding properties of PAR-2 antigen-binding proteins to cell surface expressed PAR-2 utilizing a Kinetic Exclusion Assay which measures binding events in solution phase and can be used to calculate KD, Kon and Koff (KinExA®; Sapidyne Instruments, Boise, Id.), substantially as described previously by Xie et. al. J. Imm, Methods 304:1 (2005) and Rathanaswami et. al. Anal. Biochem. 373:52 (2008). Briefly, serial dilutions of cells expressing human PAR-2 (for example, CHO transfectants expressing human PAR-2 at the cell surface, obtainable by transfecting CHO cells with human full length PAR-2 cDNA encoding a polypeptide of SEQ ID NO:2) and control cells (i.e., non-transfected CHO cells) in a modified DMEM medium (phenol red free containing 10% heat inactivated FBS, 0.1 mM MEM non-essential amino acids, 1 mM sodium pyruvate, penicillin-streptomycin-glutamine, and 0.025% (w/w) sodium azide) are incubated with set amounts of antibody for 24 to 36 hours at 4 C with rotation. […] The free mAb is measured by KinExA® using the appropriate capture beads and Cy5-conjugated anti-human secondary antibodies, as described by Rathanaswami et al. Biochem Biophys Research Commun: 1004 (2005). […]
The KD of certain PAR-2 antibodies was determined in this manner.

T1 sequence (P55085 with tags, fused parts or gaps limits assumed): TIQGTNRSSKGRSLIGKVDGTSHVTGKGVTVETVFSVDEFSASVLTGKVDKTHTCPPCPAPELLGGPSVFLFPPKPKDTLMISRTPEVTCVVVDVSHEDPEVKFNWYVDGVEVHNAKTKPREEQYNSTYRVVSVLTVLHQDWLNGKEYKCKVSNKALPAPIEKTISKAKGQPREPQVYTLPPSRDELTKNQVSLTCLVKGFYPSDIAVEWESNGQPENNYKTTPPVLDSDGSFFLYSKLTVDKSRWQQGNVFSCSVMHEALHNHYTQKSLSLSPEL

- Binding to Cleavage Site Up stream [1]: xxx
- Kd [2]: 3.39 nM
B1: 1B5: anti-PAR-2 monoclonal antibody; heavy SEQ ID NO: 13, light SEQ ID NO: 15 (antibody, listed as Homo sapiens)
heavy: EVQLVQSGAEVKKSGESLKISCKGSGYSFSNYWIGWVRQMPGKGLEWMGIIYPGDSDTRYSPSFQGQVTISADKSIRTAYLQWSSLKASDTAMYYCARHKGITGTTFYYDYGMDVWGQGTTVTVSS
light: SYELTQPPSVSVSPGQTARITCSGEALPKQYASWYQQKPGQAPVLVIYRDTERPSGIPERFSGSSSGTTVTLTISGVQAEDEADYYCQSADSNGAYVFGTGTRVTVL

From patent publication US8470556B2, “Nucleic acids that encode antigen binding proteins that bind PAR-2” (Amgen Inc., priority 2007, dated 2013)
